From publication PMC7596504, “Molecular mechanism of the MORC4 ATPase activation” (Nature Communications, 2020)

Assays:
NCP147 [1] = experiment: EMSA with NCP147; assay type: binding; conditions: 5 nM 147 bp fluorescein-labeled NCP, pH 7.5, 4 °C
Procedure: EMSAs were performed by mixing increasing amounts of MORC4 ATPase with 5 nM 147 bp fluorescein-labeled NCP in 25 mM Tris-HCl pH 7.5, 75 mM NaCl, 25 mM Tris-HCl pH 7.5, 0.005% Tween 20, and 10% glycerol buffer in a 12 μL reaction volume. Each sample was incubated at 4 °C for 5 min and then loaded onto a 5% native polyacrylamide gel. Electrophoresis was performed in 0.3× Tris-borate-EDTA (TBE) at 300 V for 90 min. Fluorescein fluorescence images were acquired with a Typhoon Phosphor Imager.

NCP252 = experiment: FRET, Gal4 titration into Cy3-Cy5 labeled NCP252; assay type: binding
Procedure: Histone octamers unlabeled or labeled with Cy5 at H2AK119 were prepared as previously described. NCPs were reconstituted by combining octamer with 1.25× excess DNA and performing slow salt dialysis. Free DNA was then separated from fully reconstituted NCPs by sucrose gradient purification. NCPs for fluorescence polarization assays were reconstituted from unlabeled octamer and 207 bp DNA containing the 601 Widom sequence flanked with a 30 bp linker on either side and internally labeled with Fluorescein 27 bp in from the 5′ end. […]
Cy3-Cy5 NCP FRET efficiency measurements were carried out on a Horiba Scientific Fluoromax 4. […] LexA titrations were carried out in 20 mM Tris pH 7.5, 75 mM NaCl, 10% glycerol, 0.00625% Tween 20 buffer with 5 nM 147 bp Cy3-Cy5 NCPs mixed in 20 µL reaction volumes and allowed to incubate for 5 mins at 4 °C before FRET of the sample was measured. […] Gal4 (1–147) titrations were carried out in 10 mM Tris pH 8, 130 mM NaCl, 10% glycerol, 0.0075% Tween 20 buffer with 1 nM 252 bp Cy3-Cy5 nucleosomes mixed in 60 µL reaction volumes and allowed to incubate for 10 mins at room temperature before FRET of the sample was measured. […]

NCP207 = experiment: Fluorescence polarization binding to NCP207
Procedure: Fluorescence polarization measurements were acquired with a Tecan infinite M1000Pro plate reader by exciting at 470 nm and measuring polarized emission at 519 nm with 5 nm excitation and emission bandwidths. The fluorescence polarization was calculated from the emission polarized parallel and perpendicular to the polarized excitation light. Fluorescence polarization measurements were carried out using increasing concentrations of MORC4 ATPaseCW, ATPase alone, or CW alone with 5 nM 207 bp Fluorescein-labeled NCPs in 15 mM Tris pH 7.5, 75 mM NaCl, 0.00625% Tween 20, and 5 mM dithiothreitol buffer in 30 µL reaction volumes. The samples were loaded into a Corning round bottom black polystyrene plate and incubated at room temperature for 10 min before fluorescence polarization measurements of the samples were taken. The data were then fit to a non-cooperative binding isotherm to determine S1/2 values. Errors represent a S.D. between the S1/2 values based on three runs.
Histone octamers unlabeled or labeled with Cy5 at H2AK119 were prepared as previously described. NCPs were reconstituted by combining octamer with 1.25× excess DNA and performing slow salt dialysis. Free DNA was then separated from fully reconstituted NCPs by sucrose gradient purification. NCPs for fluorescence polarization assays were reconstituted from unlabeled octamer and 207 bp DNA containing the 601 Widom sequence flanked with a 30 bp linker on either side and internally labeled with Fluorescein 27 bp in from the 5′ end. Cy3-Cy5 labeled NCPs for FRET assays were reconstituted with Cy5 labeled octamer plus either 147 bp 601 Widom DNA containing a LexA transcription factor binding site at bases 8–27[34], or 252 bp DNA containing the 601 Widom sequence with a 75 bp linker at the 3′ end, a 30 bp linker at the 5’ end, and a Gal4 transcription factor binding site at bases 8–26 in the 601 Widom sequence. The 147 bp LexA-binding DNA was labeled with Cy3 on the 5′ end, and the 252 bp Gal4-binding DNA was internally labeled with Cy3 34 bp in from the 5′ end.

NCP147 [2] = experiment: Fluorescence polarization binding to NCP147

binding to NCP147 in EMSA (NCP147 [1]): bound to NCP147
tighter binding to NCP147 or NCP207 than the ATPase domain only (NCP207; ATPaseCW vs ATPase domain, either NCP147 or NCP207): 2.5–6 fold
increase in interaction with NCP207 relative to NCP147 (NCP207; NCP207 vs NCP147): ~ 2 fold
S1/2 (NCP207; fluorescence polarization, 5 nM NCP207, pH 7.5, 75 mM NaCl, room temperature, 10 min, mean ± S.D. of n = 3): 0.20 ± 0.07 µM
decrease in binding to NCP147 compared to NCP207 (NCP147 [2]; NCP147 vs NCP207 (peer review file)): 2 fold
S1/2 (NCP147 [2]; fluorescence polarization, pH 7.5, 75 mM NaCl, room temperature, 10 min, mean of n = 3): 0.4 µM
B1: ATPaseCW: ATPaseCW cassette (aa 29–486) of human MORC4 (Q8TE76) (protein)
chain: GIRLSTMSPRYLQSNSSSHTRPFSAIAELLDNAVDPDVSARTVFIDVEEVKNKSCLTFTDDGCGMTPHKLHRMLSFGFTDKVIKKSQCPIGVFGNGFKSGSMRLGKDALVFTKNGGTLTVGLLSQTYLECVQAQAVIVPIVPFNQQNKKMIITEDSLPSLEAILNYSIFNRENDLLAQFDAIPGKKGTRVLIWNIRRNKNGKSELDFDTDQYDILVSDFDTEEKMTGGVTSELPETEYSLRAFCGILYMKPRMKIFLRQKKVTTQMIAKSLANVEYDTYKPTFTNKQVRITFGFSCKNSNQFGIMMYHNNRLIKSFEKVGCQVKPTRGEGVGVIGVIECNFLKPAYNKQDFEYTKEYRLTINALAQKLNAYWKEKTSQDNFETSTVARPIPKVPDQTWVQCDECLKWRKLPGKIDPSMLPARWFCYYNSHPKYRRCSVPEEQELTDEDLCLSKAKKQE
modifications: left off: GST, end not stated, cleaved
effect on nucleosome unwrapping-wrapping equilibrium (NCP252): shifts the unwrapping-wrapping equilibrium toward the wrapped state
